# Laboratory results published in paper PMC2708785 (Biochemistry, 2009).
# B1: 2-methyl-3-hydroxypyridine-5-carboxylic acid oxygenase (MHPCO) from Mesorhizobium loti MAFF303099, with N-terminal 6xHis tag (enzyme, UniProt Q988D3 1-379, looked up)
# chain: MANVNKTPGKTRRAEVAGGGFAGLTAAIALKQNGWDVRLHEKSSELRAFGAGIYLWHNGLRVLEGLGALDDVLQGSHTPPTYETWMHNKSVSKETFNGLPWRIMTRSHLHDALVNRARALGVDISVNSEAVAADPVGRLTLQTGEVLEADLIVGADGVGSKVRDSIGFKQDRWVSKDGLIRLIVPRMKKELGHGEWDNTIDMWNFWPRVQRILYSPCNENELYLGLMAPAADPRGSSVPIDLEVWVEMFPFLEPCLIEAAKLKTARYDKYETTKLDSWTRGKVALVGDAAHAMCPALAQGAGCAMVNAFSLSQDLEEGSSVEDALVAWETRIRPITDRCQALSGDYAANRSLSKGNMFTPAALEAARYDPLRRVYSWPQ
# modifications: selenomethionine in place of methionine (SeMet MHPCO)
# Columns and labels:
# [1] = molecular target: the molecule itself; assay: crystal structure
# [2] = molecular target: the molecule itself; assay: AUC
protein,measurement,setting,value
B1,stoichiometry N,[1],2
same,stoichiometry N,[2],4
